T1: soluble Flag-tagged LTα1β2 (UniProt P01374 35-205, limits assumed)
T1 construct: Soluble, Flag-tagged heterotrimer captured on anti-Flag M2 in Biacore; also called Ligand
T1 sequence 1: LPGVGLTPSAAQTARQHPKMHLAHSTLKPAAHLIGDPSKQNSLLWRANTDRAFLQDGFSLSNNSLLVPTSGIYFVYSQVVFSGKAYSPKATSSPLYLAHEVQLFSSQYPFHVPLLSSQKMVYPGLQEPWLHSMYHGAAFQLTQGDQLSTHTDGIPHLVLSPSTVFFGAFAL
T1 sequence 2: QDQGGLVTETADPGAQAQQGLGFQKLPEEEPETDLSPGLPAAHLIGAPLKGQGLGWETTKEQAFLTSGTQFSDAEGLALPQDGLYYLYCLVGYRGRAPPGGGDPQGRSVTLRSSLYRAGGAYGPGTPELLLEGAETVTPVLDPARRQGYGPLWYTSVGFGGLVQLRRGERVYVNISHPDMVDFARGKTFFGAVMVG

B1: monomeric LTβR (receptor, UniProt P36941 28-227, looked up)
chain: SQPQAVPPYASENQTCRDQEKEYYEPQHRICCSRCPPGTYVSAKCSRIRDTVCATCAENSYNEHWNYLTICQLCRPCDPVMGLEEIAPCTSKRKTQCRCQPGMFCAAWALECTHCELLSDCPPGTEAELKDEVGKGNNHCVPCKAGHFQNTSSPSARCQPHTRCENQGLVEAAPGTAQSDTTCKNPLEPLPPEMSGTMLM
notes: Injected at 20 µM in Biacore; also called LTbR
B2: mAb LT105 (P2E9.7) (antibody, V domains shown)
VH: DVQLQESGPGLVKPSQSLSLTCSVTGYSITSGYYWNWIRQFPGNKLEGMGYISYDGSNNYNPSLKNRISITRDSSKNQFFLKLNSVTAEDSGTYYCARDAYSYGMDYWGQGTSVTVSS
VL: DIVLTQSPASLAVSLGQRATISCRASESVDNYGISFMHWYQQKPGQPPKLLIYRASNLESGIPARFSGSGSRTDFTLTINPVETDDVATFYCQQSNKDPYTFGGGTKLEIK
notes: only mature variable domains printed
B3: mAb LT102 (P1G8.2) (antibody, V domains shown)
VH: EVKLVESGGGLVKPGGSLKLSCAVSGFTFSDYYMYWIRQTPEKRLEWVATIGDGTSYTHYPDSVQGRFTISRDYATNNLYLQMTSLRSEDTALYYCARDLGTGPFAYWGQGTLVTVSA
VL: DVLMTQTPRSLPVSLGDQASISCRSSQNIVHSNGNTYLEWYLQKPGQSPKLLIYKVSNRFSGVPDRFSGSGSGTDFTLKISRVEAEDLGVYYCFQGSHFPWTFGGGTKLEIK
notes: only mature variable domains printed; also called LT012
B4: mAb 9B4 (antibody, V domains shown)
VH: QVTLKESGPGILQPSQTLSLTCSFSGFSLSTSGMGVSWIRQPSGKGLEWLAHIYWDDDKRYNPSLRSRLTISKDTSRNQVFLKITSVDTADTATYYCARREGYYGSSFDFDVWGAGTTVTVSS
VL: QIVLSQSPAILSASPGEKVTMTCRASSSVSYMIWYQQKPGSSPKPWIYATSSLASGVPTRFSGSGSGTSYSLTISRVEAADAATYYCQQWSYNPLTFGAGTKLELK
notes: Murine monoclonal antibody; only mature variable domains printed; kappa light chain; also called LT 9B4; LT9B4
B5: LT105 Fab fragment (Fab, V domains shown)
VH: B2 VH
VL: B2 VL

Columns and labels:
[1] = target: T1, soluble Flag-tagged LTα1β2; assay: SPR (Biacore 3000), Flag-LTα1β2 captured on anti-Flag M2 chip; LTβR binding site 1
[2] = target: T1, soluble Flag-tagged LTα1β2; assay: SPR (Biacore 3000), Flag-LTα1β2 captured on anti-Flag M2 chip; LTβR binding site 2
[3] = target: T1, soluble Flag-tagged LTα1β2; assay: SPR (Biacore 3000), Flag-LTα1β2 captured on anti-Flag M2 chip; apparent affinity of intact antibody
[4] = target: T1, soluble Flag-tagged LTα1β2; assay: SPR (Biacore 3000), Flag-LTα1β2 captured on anti-Flag M2 chip; Fab fragment

Row | Binder | Kd [3] [nM] | other results
1 | B1 |  | Kd [1]: ~50 nM; Kd [2]: ~1500 nM
2 | B2 | ≤ 0.3 | 
3 | B3 | ≤ 0.3 | 
4 | B4 | ≤ 0.3 | 
5 | B5 |  | Kd [4]: ≥ 2 nM

From patent US20120003235A1 (published 2012)
